According to IntAct's records for PubMed 22407295:

B1: mRNA-decapping enzyme-like protein (Arabidopsis thaliana (Mouse-ear cress)), Q9SJF3 (parent)
chain: MSQNGKIIPNLDQNSTRLLNLTVLQRIDPYIEEILITAAHVTFYEFNIELSQWSRKDVEGSLFVVKRSTQPRFQFIVMNRRNTDNLVENLLGDFEYEVQGPYLLYRNASQEVNGIWFYNKRECEEVATLFNRILSAYSKVNQKPKASSSKSEFEELEAKPTMAVMDGPLEPSSTARDAPDDPAFVNFFSSTMNLGNTASGSASGPYQSSAIPHQPHQPHQPTIAPPVAAAAPPQIQSPPPLQSSSPLMTLFDNNPEVISSNSNIHTDLVTPSFFGPPRMMAQPHLIPGVSMPTAPPLNPNNASHQQRSYGTPVLQPFPPPTPPPSLAPAPTGPVISRDKVKEALLSLLQEDEFIDKITRTLQNALQQ
partner: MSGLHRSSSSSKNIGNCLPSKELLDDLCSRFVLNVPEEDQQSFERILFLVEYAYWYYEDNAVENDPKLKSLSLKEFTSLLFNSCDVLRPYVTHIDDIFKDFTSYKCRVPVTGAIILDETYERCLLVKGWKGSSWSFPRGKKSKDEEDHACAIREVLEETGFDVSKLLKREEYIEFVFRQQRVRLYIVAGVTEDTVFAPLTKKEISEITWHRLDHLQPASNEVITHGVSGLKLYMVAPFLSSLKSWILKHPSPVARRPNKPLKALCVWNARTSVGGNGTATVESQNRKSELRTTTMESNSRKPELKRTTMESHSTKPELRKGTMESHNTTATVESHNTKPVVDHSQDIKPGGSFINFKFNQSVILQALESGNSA

Variants of: B1
Conditions: with dcp2_arath DCP2, Q8GW31

Variant	effect of a mutation on the interaction
MSQNGKIIPNLDQNSTRLLNLTVLQRIDPYIEEILITAAHVTFYEFNIELSQWSRKDVEGSLFVVKRSTQPRFQFIVMNRRNTDNLVENLLGDFEYEVQGPYLLYRNASQEVNGIWFYNKRECEEVATLFNRILSAYSKVNQKPKASSSKSEFEELEAKPTMAVMDGPLEPSSTARDAPDDPAFVNFFSSTMNLGNTASGSASGPYQSSAIPHQPHQPHQPTIAPPVAAAAPPQIQDPPPLQSSSPLMTLFDNNPEVISSNSNIHTDLVTPSFFGPPRMMAQPHLIPGVSMPTAPPLNPNNASHQQRSYGTPVLQPFPPPTPPPSLAPAPTGPVISRDKVKEALLSLLQEDEFIDKITRTLQNALQQ [S237D]	increasing interaction
